# Test results taken from US11466286B2, “Methods and compositions for conferring and/or enhancing herbicide tolerance using protoporphyrinogen oxidase or variant thereof” (FarmHannong Co., Ltd., priority 2016, dated 2022).
# Positions count from the first letter of the chain named. Numbers in names are those of the source.
# B1: CyPPO10 V165S + F360V: CyPPO10 (SEQ ID NO: 2) PPO variant (protein)
# chain: MIEVDVAIVGGGLSGLSVAWRLQRSAPHYSGVLLEASDRLGGNITTQAAEGFVWELGPNSFAPTPALLQLIAEVGLHSELIRGDRHLPRYIYWRGELYPLEPTRPLALATSNLLSPWGKVRAALGALGFVPPYLGSGDESVDSFFRRHLGQEVAERLVAPFVSGSYAGDPQQLSAAAAFRRIAQLEKLGGSLIAGALRLRRQQPPQPKPPAQVQMRPGELGSFREGLAALPRAIAQQLKAPLHLQTPVEAITPEPKGGYLLRSGEQTWHARSVVLATPAYQTAELVAPFQPAIARALATIPYPTVACVVLAYPAGLGRSVRPGFGVLVPRGQGIRTLGTIWSSCLFPQRTPAGWQVFTSVIGGATDPDLASLREEAIVEQVQQDLTRLLDLPAAKARLLGMKVWRRAIPQYIVGYPQQWQQVTHALTQTPGLFLCSNYAEGVALGDRVEHGNRTAAAVAAYLAGGQS
# modifications: Synthetic CyPPO10
# B2: CyPPO10 V305M + F360M: CyPPO10 (SEQ ID NO: 2) PPO variant (protein)
# chain: B1 chain with S165V, V305M, V360M
# modifications: Synthetic CyPPO10
# B3: CyPPO10 S60T + V165S + F360M: CyPPO10 (SEQ ID NO: 2) PPO variant (protein)
# chain: B1 chain with S60T, V360M
# modifications: Synthetic CyPPO10
# B4: CyPPO10 V165C + A167L + F360M: CyPPO10 (SEQ ID NO: 2) PPO variant (protein)
# chain: B1 chain with S165C, A167L, V360M
# modifications: Synthetic CyPPO10
# B5: CyPPO10 L327T: CyPPO10 (SEQ ID NO: 2) PPO variant (protein)
# chain: B1 chain with S165V, L327T, V360F
# modifications: Synthetic CyPPO10
# B6: CyPPO10 A167L: CyPPO10 (SEQ ID NO: 2) PPO variant (protein)
# chain: B1 chain with S165V, A167L, V360F
# modifications: Synthetic CyPPO10
# B7: CyPPO10 A167C + F360M: CyPPO10 (SEQ ID NO: 2) PPO variant (protein)
# chain: B1 chain with S165V, A167C, V360M
# modifications: Synthetic CyPPO10
# B8: CyPPO10 R89L + F360I: CyPPO10 (SEQ ID NO: 2) PPO variant (protein)
# chain: B1 chain with R89L, S165V, V360I
# modifications: Synthetic CyPPO10
# B9: CyPPO10 A167L + F360I: CyPPO10 (SEQ ID NO: 2) PPO variant (protein)
# chain: B1 chain with S165V, A167L, V360I
# modifications: Synthetic CyPPO10
# B10: CyPPO10 R89A + V305T + F360M: CyPPO10 (SEQ ID NO: 2) PPO variant (protein)
# chain: B1 chain with R89A, S165V, V305T, V360M
# modifications: Synthetic CyPPO10
# B11: CyPPO10 I408R + F360M: CyPPO10 (SEQ ID NO: 2) PPO variant (protein)
# chain: B1 chain with S165V, V360M, I408R
# modifications: Synthetic CyPPO10
# B12: CyPPO10 R89A + A167L + F360M: CyPPO10 (SEQ ID NO: 2) PPO variant (protein)
# chain: B1 chain with R89A, S165V, A167L, V360M
# modifications: Synthetic CyPPO10
# B13: CyPPO10 F161A: CyPPO10 (SEQ ID NO: 2) PPO variant (protein)
# chain: B1 chain with F161A, S165V, V360F
# modifications: Synthetic CyPPO10
# B14: CyPPO10 I408W + F360M: CyPPO10 (SEQ ID NO: 2) PPO variant (protein)
# chain: B1 chain with S165V, V360M, I408W
# modifications: Synthetic CyPPO10
# B15: CyPPO10 V165C + A167C + F360M: CyPPO10 (SEQ ID NO: 2) PPO variant (protein)
# chain: B1 chain with S165C, A167C, V360M
# modifications: Synthetic CyPPO10
# B16: CyPPO10 R89V + F360I: CyPPO10 (SEQ ID NO: 2) PPO variant (protein)
# chain: B1 chain with R89V, S165V, V360I
# modifications: Synthetic CyPPO10
# B17: CyPPO10 R89A: CyPPO10 (SEQ ID NO: 2) PPO variant (protein)
# chain: B1 chain with R89A, S165V, V360F
# modifications: Synthetic CyPPO10
# B18: CyPPO10 V305T + F360I: CyPPO10 (SEQ ID NO: 2) PPO variant (protein)
# chain: B1 chain with S165V, V305T, V360I
# modifications: Synthetic CyPPO10
# B19: CyPPO10 V165C + A167I + F360M: CyPPO10 (SEQ ID NO: 2) PPO variant (protein)
# chain: B1 chain with S165C, A167I, V360M
# modifications: Synthetic CyPPO10
# B20: CyPPO10 V305L + F360M: CyPPO10 (SEQ ID NO: 2) PPO variant (protein)
# chain: B1 chain with S165V, V305L, V360M
# modifications: Synthetic CyPPO10
# B21: CyPPO10 A167I + F360M: CyPPO10 (SEQ ID NO: 2) PPO variant (protein)
# chain: B1 chain with S165V, A167I, V360M
# modifications: Synthetic CyPPO10
# B22: CyPPO10 S60T + I340T + F360I: CyPPO10 (SEQ ID NO: 2) PPO variant (protein)
# chain: B1 chain with S60T, S165V, I340T, V360I
# modifications: Synthetic CyPPO10
# B23: CyPPO10 V165C + F360M: CyPPO10 (SEQ ID NO: 2) PPO variant (protein)
# chain: B1 chain with S165C, V360M
# modifications: Synthetic CyPPO10
# B24: CyPPO10 Q184G: CyPPO10 (SEQ ID NO: 2) PPO variant (protein)
# chain: B1 chain with S165V, Q184G, V360F
# modifications: Synthetic CyPPO10
# B25: CyPPO10 F324V: CyPPO10 (SEQ ID NO: 2) PPO variant (protein)
# chain: B1 chain with S165V, F324V, V360F
# modifications: Synthetic CyPPO10
# B26: CyPPO10 V165C: CyPPO10 (SEQ ID NO: 2) PPO variant (protein)
# chain: B1 chain with S165C, V360F
# modifications: Synthetic CyPPO10
# B27: CyPPO10 S60T + V165S + F360I: CyPPO10 (SEQ ID NO: 2) PPO variant (protein)
# chain: B1 chain with S60T, V360I
# modifications: Synthetic CyPPO10
# Test system: CyPPO10
# Assay: PPO enzyme activity and IC50 by herbicides, CyPPO10 wild type and variants (MBP-PPO fusion)
# Assay type: biochemical, Thermosynechococcus elongatus BP-1
# Conditions: PPO enzyme activity of CyPPO10 protein, wild type = 100
# Method: The enzyme activities of PPO protein and PPO protein variants were examined, and inhibition assay by PPO-inhibiting herbicides was conducted. It was confirmed that the PPO protein has low water-solubility, but in case of being expressed as a fusion protein with MBP (maltose binding protein) (MBP-PPO), the PPO protein is able to be stably expressed as water-soluble form. Therefore, the wild type and variant proteins which were expressed in the form of fusion protein with MBP were used in the present test (refer to FIG. 4).
# In order to express wild type genes and mutant genes of CyPPO10 and CyPPO13 (refer to Example 1 and Example 4), those genes were introduced to pMAL-c2X vector (refer to FIG. 5) respectively, and then cloned to BL21 (DE3) E. coli (CodonPlus).
# The enzyme activity of the purified wild type protein and variant proteins of CyPPO10 and CyPPO13 was measured by the following process.
# At first, a substrate of PPO protein, Protoporphyrinogen IX was synthesized. This process was performed in the space where nitrogen gas is streamed. 6 mg of protoporphyrin IX was dissolved in 20% (v/v) EtOH 20 ml, and stirred under dark condition for 30 minutes. The obtained protoporphyrinogen IX solution was put into a 15 ml screw tube in an amount of 800 and flushed with nitrogen gas for 5 minutes. To this, 1 g of sodium amalgam was added and vigorous shaking was performed for 2 minutes. The lid was open to exhaust hydrogen gas in the tube. Thereafter, the lid was closed and incubated for 3 minutes. The […] was filtered using syringe and cellulose membrane filter. To 600 μl of the obtained […], 2M MOPS [3-(N-morpholino)propanesulfonic acid] was added in an amount of approximately 300 thereby adjusting pH to 8.0. To determine the enzyme activity of PPO protein, a reaction mixture was prepared with the following composition (based on 10 ml): 50 mM Tris-Cl (pH 8.0); 50 mM NaCl; 0.04% (v/v) Tween 20; 40 mM glucose (0.072 g); 5 units glucose oxidase (16.6 mg); and 10 units catalase (1 μl).
# Two hundred microliters (200 μl) of reaction mixture containing a purified PPO protein were placed in 96 well plates, and preincubated for 30 min at room temperature to reduce the oxygen concentration by the reaction of glucose oxidase-catalase. The mineral oil was layered and then the reaction was initiated by adding the substrate, […], to a final concentration of 50 μM. The reaction proceeded at room temperature for 30 min and the fluorescence of protoporphyrin IX was measured using Microplate reader (Sense, Hidex) (excitation: 405 nm; emission: 633 nm). To calculate the PPO enzyme activity, protoporphyrinogen IX solution was kept open in the air to oxidize the solution (overnight). To this, 2.7N HCl was added, and the absorbance at 408 nm was measured. A standard curve was generated using standard protoporphyrin IX, and the PPO activity was measured by calibration of protoporphyrin IX using the standard curve of protoporphyrin IX.
# The final concentration of each herbicide was as follows: […]
row,Molecule,Activity (%)
1,B1,52
2,B2,87
3,B3,17
4,B4,83
5,B5,84
6,B6,95
7,B7,90
8,B8,51
9,B9,32
10,B10,5
11,B11,5
12,B12,7
13,B13,92
14,B14,5
15,B15,91
16,B16,57
17,B17,83
18,B18,10
19,B19,75
20,B20,82
21,B21,85
22,B22,5
23,B23,93
24,B24,97
25,B25,59
26,B26,99
27,B27,12
